Measurements as given in patent publication US9403875B2, “Cage-like bifunctional chelators, copper-64 radiopharmaceuticals and PET imaging using the same” (UNIVERSITY OF SOUTHERN CALIFORNIA, priority 2009, dated 2016).
Like-named read-outs stand apart in the source and are kept apart here.

What was measured:
[1] = Biodistribution by direct tissue sampling in U87 MG tumor bearing nude mice; details: athymic nude, mouse, in vivo, 0.37 MBq, total radioactivity
Experimental: All mice were sacrificed and dissected at 20 h after the injection of the tracers. Blood, U87 MG tumor, major organs, and tissues were collected and weighed wet. The radioactivity in the tissues was measured using the gamma counter. The results were presented as percentage injected dose per gram of tissue (% ID/g). For each mouse, the radioactivity of the tissue samples was calibrated against a known aliquot of the injected activity. Mean uptake (% ID/g) for each group of animals was calculated with standard deviations.
To validate the accuracy of small animal PET quantification, we also performed a biodistribution experiment by using the direct tissue sampling technique. The data shown as the percentage administered activity (injected dose) per gram of tissue (% ID/g) in FIG. 19A. Both ^64Cu-AmBaSar-RGD and ^64Cu-DOTA-RGD mainly accumulated in kidneys, liver, stomach, intestine, and tumor. […] This difference was consistent with the excretion pattern from the microPET imaging results.

[2] = Log P of 64Cu-labeled RGD conjugates (1-octanol/PBS); format: physicochemical; details: pH 7.4, read-out: log P (octanol/water partition coefficient)
Experimental: After vigorously vortexing for 10 min, the vial was centrifuged for 5 min to ensure the complete separation of layers. Then, 3×10 μL of each layer was pipetted into other test tubes and radioactivity was measured using a gamma counter (Perkin-Elmer Packard Cobra). The measurement was repeated three times, and Log P values were calculated according to a known formula.

[3] = system: U87 MG human glioblastoma cell line (integrin αvβ3-positive); assay: Cell uptake study in U87 MG cells; format: cell-based; details: blocking with excess cold cyclic RGD
Experimental: U87 MG human glioblastoma cell line (integrin αvβ3-positive) was obtained from the American Type Culture Collection (ATCC, Manassas, Va.) and maintained under standard conditions according to ATCC as following: The U87 MG glioma cells were grown in Gibco's Dulbecco's medium supplemented with 10% fetal bovine serum (FBS), 100 IU/mL penicillin, and 100 μg/mL streptomycin (Invitrogen Co, Carlsbad, Calif.), at 37° C. in humidified atmosphere containing 5% CO2. The U87 MG glioma cells were grown in culture until sufficient cells were available.
The cell uptake study was performed as described in the literature with some modifications. […] The tumor cells were then washed three times with chilled PBS and harvested by 0.1 N NaOH solution containing 0.5% sodium dodecyl sulfate (SDS). The cell suspensions were collected and measured in the gamma counter.

[4] = Metabolic stability in U87 MG tumor-bearing mouse (radio-HPLC of blood and tissue homogenates); format: in vivo, athymic nude mouse; details: 1 h post injection, i.v.
Experimental: The blood was collected and immediately centrifuged for 5 min at 13,200 rpm, and the upper serum solution was added to 100 μL PBS solution containing 50% TFA, followed by mixing and centrifugation for 10 min, and the upper solution was then taken out and filtered for HPLC analysis. Liver, kidneys, and tumor were homogenized using a homogenizer, suspended in 1 mL of PBS buffer, and centrifuged for 10 min at 14,000 rpm, respectively. For each sample, after removal of the supernatant, the solution was added to 100 μL PBS solution containing 50% TFA, followed by mixing and centrifugation for 10 min, and the upper solution was then taken and filtered for HPLC analysis. Radioactivity was monitored using a solid-state radiation detector. The eluent was also collected using a fraction collector (1.5 min/fraction) and the radioactivity of each fraction was measured with the γ counter.

[5] = MicroPET imaging of U87 MG tumor-bearing nude mice; format: in vivo, athymic nude mice; details: athymic nude, mouse, in vivo, iv, 11.1 MBq, total radioactivity
Experimental: (§1) Athymic nude mice (about 10-20 weeks old, with a body weight of 25-35 g) were obtained from Harlan (Charles River, Mass.). All animal experiments were performed according to a protocol approved by University of Southern California Institutional Animal Care and Use Committee. The U87 MG human glioma xenograft model was generated by subcutaneous injection of 5×10^6 U87 MG human glioma cells into the front flank of athymic nude mice. The tumors were allowed to grow 3-5 weeks until 200-500 mm^3 in volume. Tumor growth was followed by caliper measurements of the perpendicular dimensions.
(§2) MicroPET scans and imaging analysis were performed using a rodent scanner (microPET R4; Siemens Medical Solutions) as previously reported (26). Li, Z., Cai, W., Cao, Q., Chen, K., Wu, Z., He, L., and Chen, X. (2007) ^64Cu-labeled tetrameric and octameric RGD peptides for small-animal PET of tumor αvβ3 integrin expression. J Nucl Med 48, 1162-71. […] Ten minute static scans were acquired at 1, 2, 4, and 20 h post injection. The images were reconstructed by a 2-dimensional ordered-subsets expectation maximum (OSEM) algorithm. For each microPET scan, regions of interest were drawn over the tumor, normal tissue, and major organs on the decay-corrected whole-body coronal images. The radioactivity concentration (accumulation) within the tumor, muscle, liver, and kidneys were obtained from the mean value within the multiple regions of interest and then converted to % ID/g.

[6] = system: U87 MG human glioma xenograft tumors; assay: MicroPET imaging of U87 MG tumor-bearing nude mice; format: in vivo, athymic nude mice; details: for uptake in U87 MG tumors: microPET
Experimental: as §1, §2

[7] = In vitro stability of 64Cu-labeled RGD conjugates in PBS, FBS and mouse serum; format: in vitro ADME; details: 37° C., 24 h incubation; for remaining at 24 h, 3.7 MBq/mL: read-out: radiochemical purity / tracer remained intact
Experimental: After incubated at 37° C. for 3, 18, and 24 h, an aliquot of the mixture was removed from the PBS solution and the radiochemical purity was determined with HPLC. For the solution of FBS and mouse serum, the aliquots were added to 100 μL PBS with 50% TFA. After centrifugation, the upper solution was taken and filtered for HPLC analysis.

[8] = MicroPET imaging of radiolabeled BFCs in Balb/c mice; format: in vivo; details: between 30 min and 2 hours, micro-PET region of interest quantification
Experimental: MicroPET imaging and biodistribution studies were performed with the non-targeted ^64Cu-AmBaSar and ^64Cu-DOTA complexes to allow a comparison of their base-line organ uptake and clearance properties. After 30 min, the radioactivity quickly cleared from muscle and blood, and mainly localized in the bladder and kidneys. Regarding ^64Cu-DOTA, the radioactivity mainly localized in the bladder, kidneys, and liver.
MicroPET imaging and biodistribution of the radiolabeled BFCs were performed on Balb/c mice to evaluate their in vivo properties. Animals (Balb/c, n=2) were injected with 0.3 mCi ^64Cu-AmBaSar or ^64Cu-DOTA through the tail vein. PET imaging (10-min static scans) was performed using a microPET R4 scanner (Concorde Microsystems, Inc, Knoxville, Tenn.), with 120 transaxial planes and spatial resolution of 1.2 mm, at 30 min and 2 h postinjection. The microPET data were reconstructed using the ordered subsets expectation maximization (OSEM) algorithm using the microPET Manager Software (CTI Concorde Microsystems, Inc, Knoxville, Tenn.). Images were then analyzed using the Acquisition Sinogram Image Processing (ASIPro) software (CTI Concorde Microsystems, Inc, Knoxville, Tenn.).

[9] = Lipophilicity (octanol/water partition coefficient) of 64Cu-AmBaSar and 64Cu-DOTA; format: physicochemical; details: 1-octanol/PBS, pH 7.4
Experimental: Information about the lipophilicity of the ^64Cu-AmBaSar and ^64Cu-DOTA was obtained by measuring their partitioning in a 1-octanol/water system. Counts in samples were used to determine partition coefficients (log P) values, calculated using a known formula. The log P values were measured at pH 7.4 in PBS. The log P value of ^64Cu-AmBaSar is −2.6, and the corresponding value of ^64Cu-DOTA is −2.3. Both ^64Cu-AmBaSar and ^64Cu-DOTA are hydrophilic.
The partition coefficient value was expressed as log P. Log P of ^64Cu-AmBaSar or ^64Cu-DOTA was determined by measuring the distribution of radioactivity in 1-octanol and PBS. A 5 μL sample of ^64Cu-AmBaSar or ^64Cu-DOTA in PBS was added to a vial containing 1 mL each of 1-octanol and PBS. After vortexing for 5 min, the vial was centrifuged for 5 min to ensure complete separation of layers. Then, 5 μL of each layer was pipetted into other test tubes and radioactivity was measured using a gamma counter (Packard). The measurement was repeated three times.

[10] = Biodistribution of radiolabeled BFCs in Balb/c mice; format: in vivo
Experimental: The biodistribution of ^64Cu-AmBaSar and ^64Cu-DOTA were assessed in Balb/c mice. Each animal was sacrificed at the time interval 2 h and the organs dissected. The values of percent injected dose/gram (ID/g %) in different organs were compared and illustrated in FIG. 13. The ^64Cu-AmBaSar cleared rapidly from the blood and predominantly through the kidneys. After 2 h, the kidney and liver uptake reached 1.09±0.27, 0.14±0.01% ID/g, respectively, which is consistent with the excretion pattern from the microPET imaging results. The ^64Cu-DOTA cleared through the kidney and liver, with uptake reached 1.28±0.41, 1.25±0.09, respectively, by 2 h.
For biodistribution studies, one group of mice (Balb/c, n=3) was injected intravenously with the radiotracer ^64Cu-AmBaSar (10 μCi, 100 μL). Another group of mice was injected similarly with ^64Cu-DOTA (10 μCi, 100 μL). Activity injected into each mouse was measured in a dose calibrator (Capintec). After inhalation anesthesia, animals were sacrificed at 2 h postinjection. Tissues and organs of interest were separated and weighed. Radioactivity in each organ was measured using a gamma counter, and radioactivity uptake was expressed as % ID/g. Mean uptake (% ID/g) for each group of animals was calculated with standard deviations.

[11] = 2 h postinjection, Balb/c mice, i.v.

N=C(N)NCCC[C@@H]1NC(=O)[C@H](CCCCNC(=O)c2ccc(CNC34CNCCNCC(N)(CNCCNC3)CNCCNC4)cc2)NC(=O)[C@@H](Cc2ccc(O)cc2)NC(=O)[C@H](CC(=O)O)NC(=O)CNC1=O [^64Cu-AmBaSar-RGD, metal not drawn]
tissue uptake at 20 h ([1]; direct tissue sampling, 20 h p.i., read-out: kidneys uptake): 1.51 ± 0.27 %ID/g
tissue uptake at 20 h ([1]; direct tissue sampling, 20 h p.i., read-out: liver uptake): 0.55 ± 0.06 %ID/g
logP [2]: -2.44 ± 0.12
binding to U87 MG cells in presence of excess cold cyclic RGD peptide [3]: efficiently blocked
amount of intact tracer in the blood [4]: approximately 88%
amount of intact tracer in the kidneys [4]: ~98%
amount of intact tracer in the liver [4]: ~98%
amount of intact tracer in the tumor [4]: ~95%
tissue uptake at 1 h ([5]; microPET, 1 h p.i., read-out: liver uptake): 0.89 ± 0.13 %ID/g
tissue uptake at 1 h ([5]; microPET, 1 h p.i., read-out: renal uptake): 2.83 ± 0.77 %ID/g
tissue uptake at 2 h ([5]; microPET, 2 h p.i., read-out: liver uptake): 0.76 ± 0.13 %ID/g
tissue uptake at 2 h ([5]; microPET, 2 h p.i., read-out: renal uptake): 2.68 ± 0.55 %ID/g
tissue uptake at 4 h ([5]; microPET, 4 h p.i., read-out: liver uptake): 0.75 ± 0.14 %ID/g
tissue uptake at 4 h ([5]; microPET, 4 h p.i., read-out: renal uptake): 2.49 ± 0.5 %ID/g
tissue uptake at 20 h ([5]; microPET, 20 h p.i., read-out: liver uptake): 0.64 ± 0.06 %ID/g
tissue uptake at 20 h ([5]; microPET, 20 h p.i., read-out: renal uptake): 1.43 ± 0.35 %ID/g
uptake in U87 MG tumors ([6]; 1 h p.i.): 2.04±0.14 % ID/g
uptake in U87 MG tumors ([6]; 4 h p.i.): 1.87±0.11 % ID/g
uptake in U87 MG tumors ([6]; 20 h p.i.): 0.97±0.05 % ID/g
radiochemical purity / tracer remained intact ([7]; PBS or FBS): more than 97%
radiochemical purity / tracer remained intact ([7]; mouse serum): > 95%
remaining at 24 h, 3.7 MBq/mL ([7]; mouse serum): > 95%
remaining at 24 h, 3.7 MBq/mL ([7]; serum, pH 7.4, PBS or FBS): > 97%

N=C(N)NCCC[C@@H]1NC(=O)[C@H](CCCCNC(=O)CN2CCN(CC(=O)O)CCN(CC(=O)O)CCN(CC(=O)O)CC2)NC(=O)[C@@H](Cc2ccc(O)cc2)NC(=O)[C@H](CC(=O)O)NC(=O)CNC1=O [^64Cu-DOTA-RGD, metal not drawn]
tissue uptake at 20 h ([1]; kidneys uptake): 0.98 ± 0.4 %ID/g
tissue uptake at 20 h ([1]; liver uptake): 2.16 ± 0.85 %ID/g
binding to U87 MG cells in presence of excess cold cyclic RGD peptide [3]: efficiently blocked
tissue uptake at 1 h ([5]; liver uptake): 2.28 ± 1.08 %ID/g
tissue uptake at 2 h ([5]; liver uptake): 2.31 ± 1.34 %ID/g
tissue uptake at 4 h ([5]; liver uptake): 2.15 ± 0.9 %ID/g
tissue uptake at 20 h ([5]; liver uptake): 2.52 ± 1.43 %ID/g
tissue uptake at 1 h ([5]; renal uptake): 1.52 ± 0.46 %ID/g
tissue uptake at 2 h ([5]; renal uptake): 1.33 ± 0.23 %ID/g
tissue uptake at 4 h ([5]; renal uptake): 1.55 ± 0.61 %ID/g
tissue uptake at 20 h ([5]; renal uptake): 1.58 ± 0.13 %ID/g
uptake in U87 MG tumors ([6]; 1 h p.i.): 2.03±0.10 % ID/g
uptake in U87 MG tumors ([6]; 2 h p.i.): 1.97±0.05 % ID/g
uptake in U87 MG tumors ([6]; 4 h p.i.): 1.88±0.29 % ID/g
uptake in U87 MG tumors ([6]; 20 h p.i.): 0.88±0.07 % ID/g
liver uptake compared with 64Cu-AmBaSar-RGD ([6]; mouse, in vivo): 2-3 times

O=C([O-])CN1CCN(CC(=O)[O-])CCN(CC(=O)O)CCN(CC(=O)O)CC1.[64Cu+2] [^64Cu-DOTA]
decrease of renal activity [8]: 66%
log P [9]: −2.3
liver uptake relative to 64Cu-AmBaSar ([10]; 2 h post injection): eight times higher
kidney uptake [10, 11]: 1.28±0.41 % ID/g
liver uptake [10, 11]: 1.25±0.09 % ID/g
